{
  "source": "paper PMC7610778",
  "about": "(Science (New York, N.Y.), 2020)",
  "binders": {"B1": {"name": "Atg12–Atg5-Atg16-mCherry complex (complex)", "chain 1": "MSRILESENETESDESSIISTNNGTAMERSRNNQELRSSPHTVQNRLELFSRRLSQLGLASDISVDQQVEDSSSGTYEQEETIKTNAQTSKQKSHKDEKNIQKIQIKFQPIGSIGQLKPSVCKISMSQSFAMVILFLKRRLKMDHVYCYINNSFAPSPQQNIGELWMQFKTNDELIVSYCASVAFG", "chain 2": "MNDIKQLLWNGELNVLVSIDPSFLMKGSPREIAVLRIRVPRETYLVNYMPLIWNKIKSFLSFDPLTDSEKYFWFEHNKTPIPWNYPVGVLFDCLAGKSATFTTSFENQVKDVLTFLRIHLVMGDSLPPTIIPIASSKTQAEKFWFHQWKQVCFILNGSSKAIMSLSVNEARKFWGSVITRNFQDFIEISNKISSSRPRHIPLIIQTSRTSGTFRISQPTISMTGVNPTLKDIEGDILDVKEGINGNDVMVICQGIEIPWHMLLYDLYSKLRSFDGFLYITLVPIKGGDKASSEL", "chain 3": "MGNFIITERKKAKEERSNPQTDSMDDLLIRRLTDRNDKEAHLNELFQDNSGAIGGNIVSHDDALLNTLAILQKELKSKEQEIRRLKEVIALKNKNTERLNDELISGTIENNVLQQKLSDLKKEHSQLVARWLKKTEKETEAMNSEIDGTK", "modifications": "Atg12–Atg5 conjugate | Atg12–Atg5 conjugate"}},
  "assay_in_all_cases": "pull-down",
  "key": {"[1]": {"target": "T1, Atg19-3D (S390D, S391D, S396D) (S. cerevisiae, UniProt P35193 1-415, S390D | S391D | S396D)", "T1 sequence": "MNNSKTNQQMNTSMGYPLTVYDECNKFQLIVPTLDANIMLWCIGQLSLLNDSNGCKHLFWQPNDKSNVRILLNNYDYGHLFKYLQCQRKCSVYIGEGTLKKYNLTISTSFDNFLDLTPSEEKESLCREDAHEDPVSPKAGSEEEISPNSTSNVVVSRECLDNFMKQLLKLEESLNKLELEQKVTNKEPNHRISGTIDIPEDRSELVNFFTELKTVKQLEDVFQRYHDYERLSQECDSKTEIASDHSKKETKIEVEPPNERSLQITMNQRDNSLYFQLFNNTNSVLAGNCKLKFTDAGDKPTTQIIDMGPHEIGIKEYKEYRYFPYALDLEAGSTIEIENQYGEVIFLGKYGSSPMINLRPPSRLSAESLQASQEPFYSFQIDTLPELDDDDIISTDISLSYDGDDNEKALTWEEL"}, "[2]": {"target": "Atg2-GFP-Atg18-CBP complex (yeast (S. cerevisiae), UniProt P53855;P43601)", "sequence (P53855 whole entry, one chain of several)": "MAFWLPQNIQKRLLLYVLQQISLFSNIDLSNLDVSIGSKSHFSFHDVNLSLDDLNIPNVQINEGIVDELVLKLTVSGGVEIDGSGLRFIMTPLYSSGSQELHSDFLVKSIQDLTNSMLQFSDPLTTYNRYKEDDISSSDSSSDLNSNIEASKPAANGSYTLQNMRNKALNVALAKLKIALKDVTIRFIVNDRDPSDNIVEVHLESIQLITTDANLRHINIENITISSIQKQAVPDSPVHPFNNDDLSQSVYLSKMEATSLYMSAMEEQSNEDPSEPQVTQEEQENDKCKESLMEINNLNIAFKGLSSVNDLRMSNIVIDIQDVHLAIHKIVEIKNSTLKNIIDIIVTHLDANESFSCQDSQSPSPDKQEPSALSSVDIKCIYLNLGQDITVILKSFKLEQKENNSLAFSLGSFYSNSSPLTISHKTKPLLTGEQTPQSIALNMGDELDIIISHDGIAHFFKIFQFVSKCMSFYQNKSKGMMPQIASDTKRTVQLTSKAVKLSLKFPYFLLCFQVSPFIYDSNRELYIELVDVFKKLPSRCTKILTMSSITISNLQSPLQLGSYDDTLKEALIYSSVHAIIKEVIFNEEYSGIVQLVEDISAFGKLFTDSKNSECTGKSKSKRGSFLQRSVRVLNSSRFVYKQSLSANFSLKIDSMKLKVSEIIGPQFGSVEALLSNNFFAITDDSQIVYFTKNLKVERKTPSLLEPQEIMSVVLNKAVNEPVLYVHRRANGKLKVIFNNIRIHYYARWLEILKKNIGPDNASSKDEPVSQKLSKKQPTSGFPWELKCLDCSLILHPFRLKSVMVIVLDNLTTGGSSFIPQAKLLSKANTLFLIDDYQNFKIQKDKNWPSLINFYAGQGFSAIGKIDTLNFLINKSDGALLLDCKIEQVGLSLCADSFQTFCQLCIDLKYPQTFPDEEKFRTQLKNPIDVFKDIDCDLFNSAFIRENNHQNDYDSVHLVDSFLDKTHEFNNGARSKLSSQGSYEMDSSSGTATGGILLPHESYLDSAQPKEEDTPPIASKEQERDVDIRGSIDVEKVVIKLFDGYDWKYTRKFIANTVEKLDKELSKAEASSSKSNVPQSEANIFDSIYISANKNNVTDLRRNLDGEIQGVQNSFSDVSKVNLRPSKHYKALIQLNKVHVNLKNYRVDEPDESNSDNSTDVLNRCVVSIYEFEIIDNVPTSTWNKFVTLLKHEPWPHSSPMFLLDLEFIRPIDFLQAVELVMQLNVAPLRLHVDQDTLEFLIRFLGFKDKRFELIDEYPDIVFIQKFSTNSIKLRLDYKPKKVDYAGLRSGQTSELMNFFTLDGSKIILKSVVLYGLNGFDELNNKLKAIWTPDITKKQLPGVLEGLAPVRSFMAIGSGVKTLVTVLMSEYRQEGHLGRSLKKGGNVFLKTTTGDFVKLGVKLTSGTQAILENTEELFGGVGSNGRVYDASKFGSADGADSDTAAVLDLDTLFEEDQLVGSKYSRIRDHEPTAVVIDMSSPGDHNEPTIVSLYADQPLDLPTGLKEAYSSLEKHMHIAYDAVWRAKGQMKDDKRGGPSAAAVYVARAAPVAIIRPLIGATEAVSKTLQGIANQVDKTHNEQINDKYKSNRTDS"}, "Atg2-mEGFP": {"target": "Atg2-mEGFP (yeast (S. cerevisiae), UniProt P53855 1-1592)", "sequence (P53855 whole entry)": "as the sequence (P53855 whole entry, one chain of several) above"}, "[3]": {"target": "B1"}, "[4]": {"target": "B1", "remark": "listed apart in the source"}},
  "note": "Read-outs that look alike come from different tables or passages of the source.",
  "data": [
    {"binder": "MEEQREILEQLKKTLQMLTVEPSKNNQIANEEKEKKENENS (domain or fragment)", "note": "[GST-prApe1 (1-41)]", "values": [
      {"measurement": "binding result", "setting": "[1]", "result": "binds"}
    ]},
    {"binder": "B1", "values": [
      {"measurement": "binding result", "setting": "[2]", "result": "binds"},
      {"measurement": "binding result", "setting": "Atg2-mEGFP", "result": "binds"}
    ]},
    {"binder": "Atg18-mEGFP (natural protein) MSDSSPTINFINFNQTGTCISLGTSKGFKIFNCEPFGKFYSEDSGGYAIVEMLFSTSLLALVGIGDQPALSPRRLRIINTKKHSIICEVTFPTSILSVKMNKSRLVVLLQEQIYIYDINTMRLLHTIETNPNPRGLMAMSPSVANSYLVYPSPPKVINSEIKAHATTNNITLSVGGNTETSFKRDQQDAGHSDISDLDQYSSFTKRDDADPTSSNGGNSSIIKNGDVIVFNLETLQPTMVIEAHKGEIAAMAISFDGTLMATASDKGTIIRVFDIETGDKIYQFRRGTYATRIYSISFSEDSQYLAVTGSSKTVHIFKLGHSMSNNKLDSDDSNMEEAAADDSSLDTTSIDALSDEENPTRLAREPYVDASRKTMGRMIRYSSQKLSRRAARTLGQIFPIKVTSLLESSRHFASLKLPVETNSHVMTISSIGSPIDIDTSEYPELFETGNSASTESYHEPVMKMVPIRVVSSDGYLYNFVMDPERGGDCLILSQYSILMD", "values": [
      {"measurement": "binding result", "setting": "[3]", "result": "binds"}
    ]},
    {"binder": "mEGFP-Atg21 (natural protein) MKVLQFNQDATCCVVAASSHQISIFNCDPFGKCFEIDTKNSKKKTSNNNGSASNSESRNNEESILITNGSRDRTDAEEEEDNEDNALVTGNILKEGEFVIEMLFSTSLIAIADRGQGLNKGKKLKIVNTKRKCTICEIVFPHEIVDVVMNRKRMCVLLESDQIFIYDISCMKPLETIDLWEDHYKRSQANSFSNASNTGTLEGDSANLNRVATNLLANATQKSVNGSNPSVRTRRNSLRSKIRPRMVLSNDDRSILCFTAYSSPKKNKPNSEALYDVVIYDTLNVTPVNYLNSVHKGNVACLAVSHDGKLLATASDKGTIIRVFHTGVDSDYMSSRSLFKEFRRGTRLCNLYQLAFDKSMTMIGCVGDTDTIHLFKLDDASNSLPGDNSSNGHWNEEEYILASNSNPSMGTPKEIPLSKPRIANYFSKKIKSSIPNQNLSRNFAYITVNESNRSCLGFPDEFPNQVYIASDDGTFSIYSIPSKPGECVLTKNNKFT", "values": [
      {"measurement": "binding result", "setting": "[4]", "result": "binds"}
    ]}
  ]
}
